{"source": "patent US20220089784A1", "about": "(University of California, published 2022)", "binders": {"B1": {"name": "10H10 scFv (scFv)", "scFv": "QVQLQQSGAELVRPGTSVKLSCKASGYTFTSYWMHWVKQRPGQGLEWIGVIDPSDSYTNYNQKFKGKATLTVDTSSSTAYMQLSSLTSEDSAVYYCARGGGRSSLDYWGQGTSVTVSSVDLKSGGSTSGSGKPGSGEGSSGSARDVVMTQTPASLAVSLGQRATISCKASQSVDYDGDSYMNWYQQKPGQPPKLLIYAASSLESGIPARFSGSGSGTDFTLNIHPVEEEDAATYYCQQSNEDPYTFGGGTKLEIK", "notes": "mouse"}, "B2": {"name": "10H11 scFv (scFv)", "scFv": "QIQLLQSGAELVKPGASVKLSCTASGFNIKDYYMHWVKQRPEQGLEWIGRIDPEDGDTEYAPKFQGKATMTADTSSNTAYLQLSSLTSEDSAVYFCARLNYDYPYWYFDVWGTGTTLTVSSVDLKSGGSTSGSGKPGSGEGSSGSARQIVLTQSPAIMSASPGEKVTMTCSASSSVSYMYWYQQKPGSSPRLLIYDTSNLASGVPVRFSGSGSGTSYSLTISRMEAEDAATYYCQQWSSYPLTFGAGTRLELK", "notes": "mouse"}, "B3": {"name": "10B12 scFv (scFv)", "scFv": "EVQLQQSGAELVRPGTSVKLSCKSSGYTFTSDWMHWVIQRPGQGLEWIGVIDPSDSYTNYNQKFKGKATLTVDTSSSTAYMHLSSLTSEDSAVYYCARREGHYYGKAMDYWGQGTSVTVSSVDLKSGGSTSGSGKPGSGEGSSGSARDIVMSQSPASLAVSLGQRATISCRASESVDYDGDSYMNWYQQKPGQPPKLLIYAASNLESGIPARFSGSGSGTDFTLNIHPVEEEDAATYYCLQSNEAPWTFGGGTKLEIK", "notes": "mouse"}, "B4": {"name": "10F9 scFv (scFv)", "scFv": "EVQLQQSGAELVKPGASVKLSCKASGYTFTSYWMHWIKQRPGQGLEWIGVIDPSDSYTNYNQKFKGKATLTVDTSSSTAYMQLSSLTSEDSAVYYCATGGNGFFDYWGQGTTLTVSSVDLKSGGSTSGSGKPGSGEGSSGSARDIVLTQSPASLAVSLGQRATISCRASESVDYDGDSYMNWYQQKPGQPPKLLIYAASNLESGIPARFSGSGSGTDFTLNIHPVEEEDAATYYCLQSNEAPWTFGGGTKLELK", "notes": "mouse"}, "B5": {"name": "1C10 scFv (scFv)", "scFv": "QIQLLQPGTELVRPGTSVKLSCKASGYTFTNYWMHWVKQRPGQGLEWIGVIDPSDSYTNYNQKFKGKATLTVDTSSSTAYMQLSSLTFEDSAVYYCARYSGPYAMDYWGQGTTLTVSAVDLKSGGSTSGSGKPGSGEGSSGSAREIVLTQSPASLAVSLGQRATISCRACESVDYDGDSYMNWYQQKPGQPPKLLIYAASNLESGIPARFSGSGSGTDFTLNIHPVEEEDAATYYCLQSNEAPWTFGGGTKLEIK", "notes": "mouse"}, "B6": {"name": "11D8 scFv (scFv)", "scFv": "EVQLQQSGAELVRPGTSVKLSCKASGYTFTSYWMHWVKQRPGQGLEWIGVIDPSDSYTNYNQKFKGKATLTVDTSSSTAYMQLSSLASEDSAVYYCARYPGNRAMDYWGQGTSVTVSSVDLKSGGSTSGSGKPGSGEGSSGSARDIVLTQSPASLAVSLGQRATISCRASESVDYDGDSYMNWYQQKPGQPPKLLIYAASNLESGIPARFSGSGSGTDFTLNIHPVEEEDAATYYCLQSNEAPWTFGGGTKLEIK", "notes": "mouse"}, "B7": {"name": "10B4 scFv (scFv)", "scFv": "QVQLKESGPGLVKPSQTVSLTCTVTGYSITNGNHWWNWIRQVSGSKLEWIGYISSSGYTDINPSLKSRISITRDTSKNQLFLQLNSVTTEDIATYYCARDDGYYEALDYWGQGTSVTVSSVDLKSGGSTSGSGKPGSGEGSSGSARDIVMSQSPAIMSASPGEKVTLTCSASSSVSSNYLYWYQQKPGSSPKLWIYSTSNLASGVPARFSGSGSGTSYSLTISRVEAEDAATYYCQQWSSNPPTFGGGTKLEIK", "notes": "mouse"}, "B8": {"name": "1D2 scFv (scFv)", "scFv": "QVQLKESGAELMKPGASVKLSCKATGYTFTGYWIEWVKQRPGHGLEWIGEILPGSGSTNYNEKFKGKATFTADTSSNTAYMQLSSLTTEDSAIYYCASIYYGHDYWGQGTTLTVSSVDLKSGGSTSGSGKPGSGEGSSGSARDIVMTQSPKFMSTSVGDRVSVTCKASQNVGTNVAWYQQKPGQSPKALIYSASYRYSGVPDRFTGSGSGTDFTLTISNVQSEDLAEYFCQQYNSYPYTFGGGTKLEIK", "notes": "mouse"}, "B9": {"name": "1D8 scFv (scFv)", "scFv": "EVQLQESGAELVRPGTSVKLSCKASGYTFTSYWMHWVKQRPGQGLEWIGVIDPSDSYTNYNQKFKGKATLTVDTSSSTAYMQLSSLTSEDSAVYYCARGSSGYVNYWGQGTTLTVSSVDLKSGGSTSGSGKPGSGEGSSGSARDIVMSQSPASLAVSLGQRATISCRASESVDYDGDSYMNWYQQKPGQPPKLLIYAASNLESGIPARFSGSGSGTDFTLNIHPVEEEDAATYYCLQSNEAPWTFGGGTKLEIK", "notes": "mouse"}, "B10": {"name": "7C8 scFv (scFv)", "scFv": "LQLKQSGPGLVKPSQSLSLTCSVTGYSITSGYYWYWIRQFPGNKLEWMGYISYDGSNNYNPSLKNRISITRDTSKNQFFLKLNSVTTEDTATYYCARNLGLWYFDVWGTGTPLTVSSVDLKSGGSTSGSGKPGSGEGSSGSAREIVLTQSPAILSASPGEKVTMTCRASSSVRYMHWYQQKPGSSPKPWIYATSNLASGVPARFSGSGSGTSYSLTISRVEAEDAATYYCQQWSGNAPTFGGGTKLEIK", "notes": "mouse"}, "B11": {"name": "ING2 scFv (scFv, V domains shown)", "VH": "QVQLVQSGAEVKKPGSSVKVSCKASGDTFNRNAIAWVRQAPGQGLEWMGRIIPNLRTTHYAQKFQGRVAITADKHTNTVFMELSSLRSEDTAVYYCARDPYYYSYMDVWGKGTTVTVSS", "VL": "not shown"}, "B12": {"name": "1D9 scFv (scFv)", "scFv": "EVKLVESGGDLVKPGGSLKLSCAASGFTFSSYGMSWVRQTPDKRLEWVATISSGGSYTYYPDNVKGRFTISRDNAKNNLFLQMSHLKSEDTAMYYCARDWDYYYGSYWYFDVWGTGTSVTVSSVDLKSGGSTSGSGKPGSGEGSSGSARENVLTQSPAILSASPGEKVTMTCRASSSVSYMHWYQQKPGSSPRLLIYDTSNLASGVPVRFSGSGSGTSYSLTISRMEAEDAATYYCQQWSSYPYTFGGGTKLEIK", "notes": "mouse"}, "B13": {"name": "12A11 scFv (scFv)", "scFv": "DVQLQESGPGLVKPSQSLSLTCSVTGYSITGGYYWNWIRQFPGNKLEWMGYISYDGSNNYNPSLKNRISITRDTSKNQFFLKLNSVTTEDTATYYCARNMGLWYFDVWGTGTPVTVSAVDLKSGGSTSGSGKPGSGEGSSGSARQIVLTQSPANLSASPGEKVTMTCSASSSVSYMHWYQQKPGSSPKPWIYATSNLASGVPARFSGSGSGTSYSLTISRMEAEDAATYYCQQWSSYPPMYTFGGGTKLELK", "notes": "mouse"}, "B14": {"name": "1H5 scFv (scFv)", "scFv": "EVQLQQSGAELVRPGTSVKLSCKASDYTFTNYWTHWVKQRPGQGLEWIGVIDPSDSYTNYNQKFKGKATLTVDTSSSTAYMQLSSLTSEDSAVYYCARGYYDTMDYWGQGTTVTVSSVDLKSGGSTSGSGKPGSGEGSSGSARDIVLTQSPASLAVSLGQRATISCRASESVDYDGDSYMNWYQQKPGQPPKLLIYAASNLESGIPARFSGSGSGTDFTLNIHPVEEEDAATYYCLQSNEAPWTFGGGTKLEIK", "notes": "mouse"}, "B15": {"name": "9B2 scFv (scFv)", "scFv": "QVQLQQSGAELVRPGASVKLSCTASGFNIEDDYMHWVKQRPEQGLEWIGRIDPANGNTEYAPKFQDKATITADTSSNTAYLQLSRLTSEDTAVYYCARGGWLGNYYAMDYWGQGTSVTVSSVDLKSGGSTSGSGKPGSGEGSSGSARDIVMTQTPLTLSVTIGQPASISCRSSQSLLHNYGNTYLHWYLQKPGQSPKLLIYKVSNRFSGVPDRFSGSGSGTDFTLKISRVEAEDLGVYFCSQGTHVPWTFGGGTKLEIK", "notes": "mouse"}}, "experiment_in_all_cases": "yeast scFv FACS", "key": {"[1]": {"biological_target": "BoNT/A2 holotoxin (FRI-H1A2) (Clostridium botulinum, UniProt Q45894 2-1296)", "sequence (Q45894 2-1296)": "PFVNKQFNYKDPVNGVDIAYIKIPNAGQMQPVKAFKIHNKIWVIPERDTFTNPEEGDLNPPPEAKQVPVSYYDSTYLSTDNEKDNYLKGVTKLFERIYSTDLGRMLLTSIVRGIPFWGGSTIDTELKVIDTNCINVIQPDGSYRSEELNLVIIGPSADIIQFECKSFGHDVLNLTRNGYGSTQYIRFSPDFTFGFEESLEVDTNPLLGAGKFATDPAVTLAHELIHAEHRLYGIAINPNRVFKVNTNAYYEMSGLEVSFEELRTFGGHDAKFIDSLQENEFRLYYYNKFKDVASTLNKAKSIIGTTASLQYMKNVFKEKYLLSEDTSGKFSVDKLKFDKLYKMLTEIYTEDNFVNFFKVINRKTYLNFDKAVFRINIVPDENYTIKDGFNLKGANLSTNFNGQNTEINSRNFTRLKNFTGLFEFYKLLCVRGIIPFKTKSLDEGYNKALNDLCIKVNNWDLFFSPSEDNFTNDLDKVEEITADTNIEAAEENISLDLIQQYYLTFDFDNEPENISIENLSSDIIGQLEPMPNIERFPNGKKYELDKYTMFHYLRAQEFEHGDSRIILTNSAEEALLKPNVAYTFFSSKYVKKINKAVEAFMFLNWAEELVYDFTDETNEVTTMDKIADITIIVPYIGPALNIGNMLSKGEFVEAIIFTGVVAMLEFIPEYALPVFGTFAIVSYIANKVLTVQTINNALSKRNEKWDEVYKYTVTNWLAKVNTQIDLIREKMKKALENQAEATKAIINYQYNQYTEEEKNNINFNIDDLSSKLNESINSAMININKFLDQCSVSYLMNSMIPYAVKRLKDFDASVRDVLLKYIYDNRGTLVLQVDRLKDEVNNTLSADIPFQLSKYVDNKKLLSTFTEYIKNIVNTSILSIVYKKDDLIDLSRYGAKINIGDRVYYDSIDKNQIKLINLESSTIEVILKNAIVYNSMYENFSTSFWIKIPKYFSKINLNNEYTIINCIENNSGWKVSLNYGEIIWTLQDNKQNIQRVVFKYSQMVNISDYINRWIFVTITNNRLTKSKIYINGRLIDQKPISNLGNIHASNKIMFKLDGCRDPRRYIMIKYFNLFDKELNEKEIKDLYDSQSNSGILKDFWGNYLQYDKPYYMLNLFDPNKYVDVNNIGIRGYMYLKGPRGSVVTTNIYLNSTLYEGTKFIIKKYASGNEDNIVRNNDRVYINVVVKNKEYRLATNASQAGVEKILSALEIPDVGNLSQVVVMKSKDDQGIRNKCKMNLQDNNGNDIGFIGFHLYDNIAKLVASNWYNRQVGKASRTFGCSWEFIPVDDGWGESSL"}, "[2]": {"biological_target": "BoNT/A light chain (recombinant) (Clostridium botulinum, UniProt P0DPI0 1-448)"}, "[3]": {"biological_target": "BoNT/A1 holotoxin (Hall hyper) (Clostridium botulinum, UniProt P0DPI0 2-1296)"}}, "data": [{"binder": "B1", "values": [{"measurement": "binding result", "setting": "[1]", "result": "no binding"}, {"measurement": "Kd", "setting": "[2]", "result": 11.1, "unit": "nM"}, {"measurement": "binding result", "setting": "[3]", "result": "no binding"}]}, {"binder": "B2", "values": [{"measurement": "binding result", "setting": "[1]", "result": "no binding"}, {"measurement": "Kd", "setting": "[2]", "result": 0.92, "unit": "nM"}, {"measurement": "binding result", "setting": "[3]", "result": "no binding"}]}, {"binder": "B3", "values": [{"measurement": "Kd", "setting": "[1]", "result": 140, "unit": "nM"}, {"measurement": "Kd", "setting": "[2]", "result": 0.53, "unit": "nM"}, {"measurement": "binding result", "setting": "[3]", "result": "no binding"}]}, {"binder": "B4", "values": [{"measurement": "Kd", "setting": "[1]", "result": "> 500", "unit": "nM"}, {"measurement": "Kd", "setting": "[2]", "result": 0.09, "unit": "nM"}, {"measurement": "Kd", "setting": "[3]", "result": "> 500", "unit": "nM"}]}, {"binder": "B5", "values": [{"measurement": "binding result", "setting": "[1]", "result": "no binding"}, {"measurement": "Kd", "setting": "[2]", "result": 4.85, "unit": "nM"}, {"measurement": "binding result", "setting": "[3]", "result": "no binding"}]}, {"binder": "B6", "values": [{"measurement": "binding result", "setting": "[1]", "result": "no binding"}, {"measurement": "Kd", "setting": "[2]", "result": 0.22, "unit": "nM"}, {"measurement": "binding result", "setting": "[3]", "result": "no binding"}]}, {"binder": "B7", "values": [{"measurement": "Kd", "setting": "[1]", "result": 252, "unit": "nM"}, {"measurement": "Kd", "setting": "[2]", "result": 1.53, "unit": "nM"}, {"measurement": "Kd", "setting": "[3]", "result": "> 500", "unit": "nM"}]}, {"binder": "B8", "values": [{"measurement": "binding result", "setting": "[1]", "result": "no binding"}, {"measurement": "Kd", "setting": "[2]", "result": 6.4, "unit": "nM"}, {"measurement": "binding result", "setting": "[3]", "result": "no binding"}]}, {"binder": "B9", "values": [{"measurement": "binding result", "setting": "[1]", "result": "no binding"}, {"measurement": "Kd", "setting": "[2]", "result": 3.35, "unit": "nM"}, {"measurement": "binding result", "setting": "[3]", "result": "no binding"}]}, {"binder": "B10", "values": [{"measurement": "Kd", "setting": "[1]", "result": 0.45, "unit": "nM"}, {"measurement": "Kd", "setting": "[2]", "result": 0.94, "unit": "nM"}, {"measurement": "Kd", "setting": "[3]", "result": 0.73, "unit": "nM"}]}, {"binder": "B11", "values": [{"measurement": "Kd", "setting": "[1]", "result": 0.12, "unit": "nM"}, {"measurement": "Kd", "setting": "[2]", "result": "> 16.3", "unit": "nM"}, {"measurement": "Kd", "setting": "[3]", "result": 0.11, "unit": "nM"}]}, {"binder": "B12", "values": [{"measurement": "binding result", "setting": "[1]", "result": "no binding"}, {"measurement": "Kd", "setting": "[2]", "result": 9.13, "unit": "nM"}, {"measurement": "binding result", "setting": "[3]", "result": "no binding"}]}, {"binder": "B13", "values": [{"measurement": "Kd", "setting": "[1]", "result": 2.08, "unit": "nM"}, {"measurement": "Kd", "setting": "[2]", "result": 25.8, "unit": "nM"}, {"measurement": "Kd", "setting": "[3]", "result": 0.66, "unit": "nM"}]}, {"binder": "B14", "values": [{"measurement": "binding result", "setting": "[1]", "result": "no binding"}, {"measurement": "Kd", "setting": "[2]", "result": 10.6, "unit": "nM"}, {"measurement": "binding result", "setting": "[3]", "result": "no binding"}]}, {"binder": "B15", "values": [{"measurement": "Kd", "setting": "[1]", "result": 154, "unit": "nM"}, {"measurement": "Kd", "setting": "[2]", "result": 0.67, "unit": "nM"}, {"measurement": "Kd", "setting": "[3]", "result": 232, "unit": "nM"}]}]}
